Measurements taken from the DeepSol protein solubility set.

Test: soluble on expression in E. coli; label from the status in PepcDB or PDB records

Row | Sequence | soluble on expression in E. coli
1 | MSLSQANRVFITGRSALTASGATADETWNAIISGQCGIDEINFWELSEWSHRLGGEIKDFQPSKMLPDRKLIKVISRQDIMGINAAVQAVEHSKMIAYRDSLADADLFNEQTAIYVGSPGNKYFQQYDFIPLLAKTHGDMRSFANQLFDEVHPMWLLRILPNNVLAYTGITYGFKGPNHNVTNHAVGGTQAILEAYHAIRSGQAERAVVVAYDIGTEPQGLFYYEKLGVVSNRHLKPFDKEHDGTILAEGAAALVLESEASVKSRAATCYGEIVGGLSASEATGLFSIEADGQHLASLMGQTLSTSGINSEEIGLIVTHGNGNSKSDDSEALAIKSVFKQEEVPATAFKWSMGHTLCASGVLDAVLTTYALETKCVPGIANFQQIAPTCEGLSVSREHREIISNSYAMMINRGFASMNVCLVIKACEEGHHHHHH | not soluble
2 | IVGGYNCKDGEVPWQALLINEENEGFCGGTILSEFYILTAAHCLYQAKRFKVRVGDRNTEQEEGGEAVHEVEVVIKHNRFTKETYDFDIAVLRLKTPITFRMNVAPASLPTAPPATGTKCLISGWGNTASSGADYPDELQCLDAPVLSQAKCEASYPGKITSNMFCVGFLEGGKDSCQGDSGGPVVCNGQLQGVVSWGDGCAQKNKPGVYTKVYNYVKWIKNTIAANS | soluble
3 | GPHMTTIEDEDTKVRKQEIIKVTEQLIEAISNGDFESYTKMCDPGMTAFEPEALGNLVEGLDFHRFYFENLWSRNSKPVHTTILNPHIHLMGDESACIAYIRITQYLDAGGIPRTAQSEETRVWHRRDGKWQIVHFHRSGAPSVLPH | soluble
4 | MQDEESLMWVQFGGDDGKQVVAELAMRADKYAVRTRDNSSPVLTGFEGVPTYAYSPAWVIEGRFEPYAEPMDVPIGTANPLVDGVHRSVGEVVFRAPGVPHEIRLHAEEEKLGALNVTFHDETNGDTTDEWRKVFIPRPRPDGSVVIDFNRAINYPSAFTPYGTCPMPVRGNSVDVRVEAGEKLPQGLEHHHHHH | soluble
5 | MSKKFFLSLGLVALLFSNSQAIDENLIKAAQAEGRVNSLAMPDTWANWKDTWADLKNLYDIEHSDTDMSSAQEIAKFKTEKKNASGDIGDVGASFGEIAVKQGVAQPFKTSYWDQIPTWAKDKDGNWLLAYTGTIAFIVNKDVVKDIPKTWQDLLKGNYKITVGDVSVAAQAVSAVLAANYALGGDEKDLSPALAFFNTLAKQGRLVNNDVSIANLEKGEVEVGLVWDFNGLGYRDKVGKDRYEVLIPADGSVISGYTTIINKYAKHPNAAKLAREFILSDKGQINLAKGYARPIRIDHITLPDDIKAKLLPSEQYKNARAIKDQKAWEKSAKELPQLWQEKVIVDMK | not soluble
6 | PPTGECRTVVFDFDGVLAEGFEGEVRPRPLGVALARRLIGRGYRVYIVSGRPEQERSLIARLLREWCIPLGGVRGIILRRRGVGEVDHKLESIMEVEAREGCVGEVHDDNPYVLEALRRRVETLVLHTPR | not soluble
7 | MAQKISINRGLGLGMAQLGAFARMGMMINVSAMGPQDGHANGGVGEGGIEMSRKSTWRSENDEIKTRKSTAFEPDLDFDMIDFRQPSGSSQYLYGFGFDNNAFGLADGQSDEDSVFM | not soluble
8 | MGSDKIHHHHHHMPEFMKPIHSVILIQNLQARIETCAEMAVNVFQNLNTASLLCPSNTGGWSIVQCLDHLNSYGDYYLPHIQKAFDTHMPGKPAEDVKSSWLGNYFTQLMLPDSGKKYKAFKKHIPKPRLDSAAVVATFIEQQEILLTYLEKAKKYDMNTIRISISIAPFIKLKLGDVFQFLVAHTERHVQQAQRNVPIYE | not soluble
9 | MGRAMGDSFTFIFNPAADKGRAADKTALIERSLAHFEVASLETTRFAGHAAEIARAAAGEGSTLIACGGDGTLNEVVNAVAGQPVKVGVLPVGSANDFLKTFNPSAKEHEVRIRGFAGATSRKVDLGKVEFGGGESRYFVNSIGIGFTGRIASTVKSVKWLRGELSYAWALVSVLLGYSAVKMHITLDTVEGKIELDEPVFAFSVSNGRVEGGKFRIAPEADPFDGLLDVCILKAVSKWRVPGYVLKYLKGSQIHDPNVIYCKARSVEVFLSVSEAMHMDGEVIEKVGGAIAITAEPLAVEMLYEP | not soluble
10 | MNRLPVDDVIPDLLTALEQRNAAVLQAPPGAGKTTRVPLALLDAPWLNGKRIIMLEPRRLAATNAARWMARSLGEEAGATVGYAIRFDRRVSARTRVEVVTEGILTRRLQSDPLLEGVGAVIFDEFHERSIHSDLALALCRDVQAGLREDLRIIVMSA | not soluble
11 | MAEVKGMTVFNTEEVNTKKQPMFFGKPLGVQRYDNFKYPSFENLTKQQLGYFWRPEEVSLQKDRGDYQTLRPEQKHIYTSNLKYQIMLDSVQGRAPGMAFLPYCSLPELEACMEVWSFMEMIHSRSYTYVIKNVYADPSEVFDKILSDDRILSRAASVTESYDDFINEAQGWGQSNLWRDMDKSLDTSLPVLEMKEVKRKLYRAVTNVNILEGIRFYVSFACSFAFGELKVMEGSAKIISLIARDENQHLAITQNILNNWRKGDDPEMVEIMKEEEQWTYQMFEKCVNEEKMWAEYLFKDGSMIGLNDKLLHQYVEWVANRRMRSIGMKPVYDIAAKNNPLPWTEHWISSKGLQVAPQETEVESYIVGGIKQDVKKDTFAGFKL | soluble
12 | MSLVERVILIVLDSVGAGEMPDADKYGDKGSDTIGNISKAVGGLKLPDMVKMGLGNISGIKGVDKVQYPIGAFGKLKEMSKGKDTVTGHWEMSGVILEEPLNTYPNGFPKDIIDEFEKKIGRKVIGNKVASGTEIIKELGDEHIKTGCPIVYTSADSVFQVAAHEEIIPLDELYKICKVAREMLVDDRTVGRVIARPFVGKNSNYTRTSNRRDFALDPFNKTMLEYIKENKSNVMCVGKIEDIFNKKGVTEAVHIKNNMDGVDKTLEYMKTDKKGLIFTNLVDFDMLYGHRNDPKGYAKALEEFDGRINEIKTNMKDYDVLMITADHGCDPTTESTDHSREYIPFIAYGKDIKGGADIKIRDSFSDIGKTILDLLQVENNLVGKSFKDIIMKEGHHHHHH | not soluble
13 | MGSDKIHHHHHHMEHLLHYVWKHKLFPLKILQTTKGLLVEIIDSGLQNPDAGPDFFNAKLKIDGTLWVGNIEIHTHSSDWYRHGHDHDKTYDSVILHVVAEADAEVTRSNGEQIPQLLLTCPENVQTHYHELCIADQYPACYSIIGSLSKLTIHSWLTALQTERLEQKARQIADRLERCDRHWEDAFFITLARNFGFGLNGDAFETWAGLLPFRAIDKHRNDLFQIEAFFFGQAGLLEEAFLKKEQEDEYSLRLRKEFRYLQRKFELNQVMDAGLWRFLRLRPENFPHIRLAQLAYLYQKVDKLFSQMMEAETLPEVRQLLSTHASAYWDNHYIFGRPSPQREKSMGEKSQDLIVINTVVPFLYAYGLHRTDERMCDRAGRFLEELKAENNHIIRSWGDAGLPVGSAADSQALIQLRKEYCDKRKCLFCRFGYEYLRKK | not soluble
14 | MSLSNTVHVFFGNKDSKVQVFKDKGTNQFANQVNLFMGDYLDTYFNRDKDTDLDKLKKYYGSGIDIKGQESRDIDMKLEHVSLVEIKSSVAVYDINYQIKDGDNWKSVLARINVPYKEKDGRYYVSDLPYYTDQSSYVADTVKGNSKLPTQSEVEGLSNKKLSGLKDYIVAFFKAYTSGDNSQMAPFSGAVSPLKSYEFEELDYAYFIKHKHSIIAVVQVTFKNEFGVKHQENFTLEVTESKQTSSYYVKSMKHGIDEDCRKEMKMDEGHHHHHH | soluble
15 | MGSDKIHHHHHHMPAILDLFNQKTVLDYVQNRQYPQLLGDTLFPSVKIDQLDFEYLRGGSKTPIIASVSAFDTEAEIGSREASVQAAELGYIKRKMQLKEKDLIALRNPRTPAEQNYLTSLVYNDLDVLVQGVYARVEKMRMEALATGTISIDENNMNFGVTYNVPAEHQVTAATSWDADGADPIKDLQDWFALLDYAPTRILTSSKVQTALIRSKAFADYFKTAGLLPSVGSLNAVLQSFGLPTIVTYDAKYRKQGANGIYTVERYFPEDTLVAFGDDQLGQTVYGPTPEESRLIATPGVQQGTVGNVFTTVYETTQDPIATWEKAAATALPSFPEAENVLQAKVLIPKP | not soluble
16 | MTDYDVLRVFCAPNGGYGNELGVVRDGSVLPEPERRQELAAKLGFSETVFVDDPERGVVDIYTPTLRLPFAGHPCVGTAWLLDVPELVTRAGVVGARLDGEFSWIEARPEWAPPRTLRQYAAVAEVDDLAVPPKGEWVYAWAWEDEAAGRVRARAFPGRDDGIDEDEATGAAALLLTGRLGRALNITQGVGSQILTAPQPEGWVEIGGRVRLERLEHHHHHH | not soluble
17 | MAESDWDTVTVLRKKGPTAAQAKSKQAILAAQRRGEDVETSKKWAAGQNKQHSITKNTAKLDRETEELHHDRVTLEVGKVIQQGRQSKGLTQKDLATKINEKPQVIADYESGRAIPNNQVLGKIERAIGLKLRGKDIGKPIEKGPRAK | not soluble
18 | MTKVTIKAPSDYLQTDWSGGETNQLFLYPEDGDYKKREFSYRLSTATVALRQTTFTRLDGYHRILMSLDKPITLSDLSHAKEISLAPFQPYAFEGDTRIVSRGTCQDINLMYDDQYQGQLLPVWSDTPFEAPKADCQLLYALSKLTYSVTNQANQELEANHLLVTEQEASLSDLKVCLNQTSPAQTPVAVWAGLWYKT | not soluble
19 | MFAMTSSAQSPLQQLGGTVVLAGAGKMGGALLTGWLAQGLDGGDVVVIEPHPTEEIAALSARGVRLNASAGDVGAVSTLVVAVKPQMFAEAAAALRGYVGPSTLVVSIMAGKPIAALSEQLGGHVVRAMPNTPAAIGRGITVAVAAGNVTAAQRGIADALLRATGGVEWVDDEALIDAVTAVSGSGPAYVFLLAEELARAGVEAGLPEGLAMTLARATVAGSGELLHRSDLDAATLRKNVTSPGGTTAAALEVLMANDGFRPLLTRAVAAATKRSKELAKAAALEHHHHHH | soluble
20 | MGEKIMKSMEIRSSEITTSGAGTLTGYVVRWDKLSELLWGEFYEKFQRGAFTEWLAAGNDVRGLYEHDHSMLLGRTRSGTLKLEEDETGLRFELTPPDTSTGRDVIELVKRGDISGMSFGFRSRKDVWDTTTDPCVRTVLVAELYEITVTSVPAYPDSGVELARRSLYEQHPEKMPRADNRRWWADLAGV | not soluble
21 | SNAMIRNIVFDLGGVLIHLNREESIRRFKAIGVADIEEMLDPYLQKGLFLDLESGRKSEEEFRTELSRYIGKELTYQQVYDALLGFLEEISAEKFDYIDSLRPDYRLFLLSNTNPYVLDLAMSPRFLPSGRTLDSFFDKVYASCQMGKYKPNEDIFLEMIADSGMKPEETLFIDDGPANVATAERLGFHTYCPDNGENWIPAITRLLREQK | soluble
22 | MKNDSFLDKVIGSLLSQNFQVDSNAYTYGLVKGKNDSFSGKVIDGIDVAKSILAIAQIFGSPIDSDCADFKTIFNGEGFKKDLKALYSMTDAVLYKFILGQPLIVGVVKADSLTHNEIYDITDKFDKAILGFRKYTARMKWTKCR | not soluble
23 | MGNNVVVLGTQWGDEGKGKIVDLLTERAKYVVRYQGGHNAGHTLVINGEKTVLHLIPSGILRENVTSIIGNGVVLSPAALMKEMKELEDRGIPVRERLLLSEACPLILDYHVALDNAREKARGAKAIGTTGRGIGPAYEDKVARRGLRVGDLFDKETFAEKLKEVMEYHNFQLVNYYKAEAVDYQKVLDDTMAVADILTSMVVDVSDLLDQARQRGDFVMFEGAQGTLLDIDHGTYPYVTSSNTTAGGVATGSGLGPRYVDYVLGILKAYSTRVGAGPFPTELFDETGEFLCKQGNEFGATTGRRRRTGWLDTVAVRRAVQLNSLSGFCLTKLDVLDGLKEVKLCVAYRMPDGREVTTTPLAADDWKGVEPIYETMPGWSESTFGVKDRSGLPQAALNYIKRIEELTGVPIDIISTGPDRTETMILRDPFDA | soluble
